Results: patent US10227388B2, “Peptides and combination of peptides for use in immunotherapy against non-small cell lung cancer and other cancers” (immatics biotechnologies GmbH, priority 2015, dated 2019)

Molecular target: HLA-A*02:01 (Homo sapiens, UniProt P04439, D140Y/D185E/D98H/E176V/E277Q/G131W/G231S/I119V/I121R/I166T/I218V/L300P/L318F/N151K/N90K/P208A/P217A/Q86G/Q94H/R138H/R169H/T345S)
Assay: MHC binding assay (UV-ligand exchange, ELISA, peptide exchange yield)
Conditions: binding of HLA-class I restricted peptides to HLA-A*02:01
In short: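 Peptide–HLA-A*02:01 complexes made by UV-ligand exchange of a UV-cleavable peptide for the test peptide. Exchange yield measured by ELISA: 100-fold diluted monomers captured on streptavidin, 1 h at 37° C., detected with HRP anti-β2m and TMB, absorbance at 450 nm.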

Row | Substance | Peptide exchange (MHC class I binding score, peptide exchange yield)
1 | 434 (KVSNSGITRV; listed as Homo sapiens) [compound 434] | ″++″ (≥20% = ++)
2 | 436 (HLAEVSAEV; listed as Homo sapiens) [compound 436] | ″+++″ (≥50% = +++)
3 | 437 (SMAPGLVIQAV; listed as Homo sapiens) [compound 437] | ″+++″ (≥50% = +++)
4 | 438 (KLLPLAGLYL; listed as Homo sapiens) [compound 438] | ″++++″ (≥75% = ++++)
5 | 439 (YLLQEIYGI; listed as Homo sapiens) [compound 439] | ″+++″ (≥50% = +++)
6 | 440 (ALADGVTMQV; listed as Homo sapiens) [compound 440] | ″++″ (≥20% = ++)
7 | 441 (ALLENPKMEL; listed as Homo sapiens) [compound 441] | ″+++″ (≥50% = +++)
8 | 442 (GLLGGGGVLGV; listed as Homo sapiens) [compound 442] | ″+++″ (≥50% = +++)
9 | 444 (GLLRDEALAEV; listed as Homo sapiens) [compound 444] | ″+++″ (≥50% = +++)
10 | 446 (QLIPALAKV; listed as Homo sapiens) [compound 446] | ″+++″ (≥50% = +++)
11 | 447 (QLVPALAKV; listed as Homo sapiens) [compound 447] | ″++″ (≥20% = ++)
12 | 448 (NLLETKLQL; listed as Homo sapiens) [compound 448] | ″+++″ (≥50% = +++)
13 | 449 (KLAEGLDIQL; listed as Homo sapiens) [compound 449] | ″+++″ (≥50% = +++)
14 | 450 (FMIDASVHPTL; listed as Homo sapiens) [compound 450] | ″+++″ (≥50% = +++)
15 | 451 (LLLLDTVTMQV; listed as Homo sapiens) [compound 451] | ″++″ (≥20% = ++)
16 | 452 (ILLEHGADPNL; listed as Homo sapiens) [compound 452] | ″+++″ (≥50% = +++)
17 | 453 (KLLEATSAV; listed as Homo sapiens) [compound 453] | ″++″ (≥20% = ++)
18 | 454 (KLPPPPPQA; listed as Homo sapiens) [compound 454] | ″+++″ (≥50% = +++)
19 | 455 (SLLKEPQKVQL; listed as Homo sapiens) [compound 455] | ″++″ (≥20% = ++)
20 | 456 (LLIGHLERV; listed as Homo sapiens) [compound 456] | ″+++″ (≥50% = +++)
21 | 457 (SLLPGNLVEKV; listed as Homo sapiens) [compound 457] | ″+++″ (≥50% = +++)
22 | 458 (SLIDKLYNI; listed as Homo sapiens) [compound 458] | ″++″ (≥20% = ++)

Row | Substance | Peptide exchange (MHC class I binding score, peptide exchange yield)
23 | 459 (ALITEVVRL; listed as Homo sapiens) [compound 459] | ″++″ (≥20% = ++)
24 | 461 (VMFRTPLASV; listed as Homo sapiens) [compound 461] | ″++″ (≥20% = ++)
25 | 462 (KLAKQPETV; listed as Homo sapiens) [compound 462] | ″+++″ (≥50% = +++)
26 | 463 (SLVESHLSDQLTL; listed as Homo sapiens) [compound 463] | ″+++″ (≥50% = +++)
27 | 464 (ALNDCIYSV; listed as Homo sapiens) [compound 464] | ″+++″ (≥50% = +++)
28 | 465 (QLCDLNAEL; listed as Homo sapiens) [compound 465] | ″+++″ (≥50% = +++)
29 | 466 (VLIANLEKL; listed as Homo sapiens) [compound 466] | ″++++″ (≥75% = ++++)
30 | 467 (FLAKDFNFL; listed as Homo sapiens) [compound 467] | ″+++″ (≥50% = +++)
31 | 468 (YLRSVGDGETV; listed as Homo sapiens) [compound 468] | ″+++″ (≥50% = +++)
32 | 469 (YLASDEITTV; listed as Homo sapiens) [compound 469] | ″+++″ (≥50% = +++)
33 | 471 (YLYNNMIAKI; listed as Homo sapiens) [compound 471] | ″+++″ (≥50% = +++)
34 | 472 (KLLEVSDDPQV; listed as Homo sapiens) [compound 472] | ″+++″ (≥50% = +++)
35 | 473 (AMATESILHFA; listed as Homo sapiens) [compound 473] | ″+++″ (≥50% = +++)
36 | 474 (YLDPALELGPRNV; listed as Homo sapiens) [compound 474] | ″+++″ (≥50% = +++)
37 | 475 (LLLNEEALAQI; listed as Homo sapiens) [compound 475] | ″+++″ (≥50% = +++)
38 | 476 (ALMERTGYSMV; listed as Homo sapiens) [compound 476] | ″+++″ (≥50% = +++)
39 | 477 (ALLPASGQIAL; listed as Homo sapiens) [compound 477] | ″+++″ (≥50% = +++)
40 | 478 (YLLHEKLNL; listed as Homo sapiens) [compound 478] | ″+++″ (≥50% = +++)
41 | 479 (SLFGNSGILENV; listed as Homo sapiens) [compound 479] | ″+++″ (≥50% = +++)
42 | 480 (ALLEDSCHYL; listed as Homo sapiens) [compound 480] | ″+++″ (≥50% = +++)
43 | 481 (GLIEDYEALL; listed as Homo sapiens) [compound 481] | ″+++″ (≥50% = +++)
44 | 484 (SLIEKVTQL; listed as Homo sapiens) [compound 484] | ″+++″ (≥50% = +++)

Row | Substance | Peptide exchange (MHC class I binding score, peptide exchange yield)
45 | 485 (NVPDSFNEV; listed as Homo sapiens) [compound 485] | ″+++″ (≥50% = +++)
46 | 486 (AVMESIQGV; listed as Homo sapiens) [compound 486] | ″+++″ (≥50% = +++)
47 | 487 (LLINSVFHV; listed as Homo sapiens) [compound 487] | ″+++″ (≥50% = +++)
48 | 488 (FLAEDPKVTL; listed as Homo sapiens) [compound 488] | ″+++″ (≥50% = +++)
49 | 490 (FLLQHVQEL; listed as Homo sapiens) [compound 490] | ″+++″ (≥50% = +++)
50 | 491 (GLNDRSDAV; listed as Homo sapiens) [compound 491] | ″++″ (≥20% = ++)
51 | 492 (SLFDGFADGLGV; listed as Homo sapiens) [compound 492] | ″+++″ (≥50% = +++)
52 | 493 (GLLGEKTQDLIGV; listed as Homo sapiens) [compound 493] | ″+++″ (≥50% = +++)
53 | 494 (ALQPEPIKV; listed as Homo sapiens) [compound 494] | ″++″ (≥20% = ++)
54 | 495 (FIFSEKPVFV; listed as Homo sapiens) [compound 495] | ″+++″ (≥50% = +++)
55 | 496 (FLVEKQPPQV; listed as Homo sapiens) [compound 496] | ″+++″ (≥50% = +++)
56 | 497 (GLLEKLTAI; listed as Homo sapiens) [compound 497] | ″+++″ (≥50% = +++)
57 | 498 (KLWTGGLDNTV; listed as Homo sapiens) [compound 498] | ″+++″ (≥50% = +++)
58 | 500 (SLMEDQVLQL; listed as Homo sapiens) [compound 500] | ″+++″ (≥50% = +++)
59 | 501 (LLDPNVKSIFV; listed as Homo sapiens) [compound 501] | ″+++″ (≥50% = +++)
60 | 502 (RLLAQVPGL; listed as Homo sapiens) [compound 502] | ″+++″ (≥50% = +++)
61 | 503 (SLNHFTHSV; listed as Homo sapiens) [compound 503] | ″+++″ (≥50% = +++)
62 | 504 (GLSDGNPSL; listed as Homo sapiens) [compound 504] | ″++″ (≥20% = ++)
63 | 505 (SLAPGDVVRQV; listed as Homo sapiens) [compound 505] | ″++″ (≥20% = ++)
64 | 506 (KLLGKVETA; listed as Homo sapiens) [compound 506] | ″+++″ (≥50% = +++)
65 | 507 (KLIDDQDISISL; listed as Homo sapiens) [compound 507] | ″+++″ (≥50% = +++)
66 | 508 (ILAQEQLVVGV; listed as Homo sapiens) [compound 508] | ″+++″ (≥50% = +++)
